Ends that are not written are not given here.

In series [1] the test system is insulin-stimulated glycogen synthesis in soleus muscle. The following applies: cited from earlier work.
In series [2] the test system is food intake in rats. The following applies: IP, 0.5 μg/kg; cited from earlier work.
In series [3] the target is amylin receptors (membrane-bound amylin receptors).
For series [4] the target is unchanged. As to the kind of experiment: receptor binding assay: competition with 125I Bolton Hunter rat amylin for membrane-bound amylin receptors.
Series [5] has as its system food intake in mice. As to the kind of experiment: food intake in food-deprived mice after intraperitoneal injection. In kind it is in vivo. The method, then: Male NIH/Swiss Webster (Hsd:NIHS) mice, 8-10 weeks of age, were obtained from Harlan Sprague Dawley, Madison, Wis. Animals were exposed to 12:12 hour light-dark cycle, with lights off at 18:00, and with room temperature between 22° and 25° C. Water and food (Teklan 7002, Harlan Teklad, Madison, Wis.) were available ad libitum except as indicated below. Animals were adapted to the vivarium environment for at least one week before experiments were carried out.
Rat amylin (AC128) was synthesized by Fmoc solid phase synthesis. […] Peptides were dissolved in sterile water to obtain stock solutions of 1 mg/ml. Further dilutions were made with sterile saline just prior to intraperitoneal injections.
Animals were individually housed and deprived of food for 18-20 hours before experiments. Animals were allowed ad libitum access to water before and during the experiments. Immediately after intraperitoneal injection of rat amylin or CCK-8 or saline, all animals received a pre-weighed pellet of food. Food intake for each animal was measured by weighing the food pellet at 30 minutes following injection and providing food.

Series [6] is described as follows: solubility and stability characteristics compared to human amylin. In kind it is physicochemical.

A word on the EC50: it is the concentration that produces a half-maximal response. As to “Salmon calcitonin: calcitonin from fish (salmon), ultimobranchial calcitonin, amylin agonist”, the EC50 in series [1] is 0.4 nM.
Regarding “Chicken calcitonin: ultimobranchial calcitonin closely related to fish calcitonins (CASLSTCVLGKLSQELHKLQTYPRTDVGAGTP; ends and bridges not checked; cysteine pairing not given here)”, in series [1], the EC50 was 0.7 nM.
As for “amylin: amylin of unstated species in a literature report (KCNTATCATQRLANFLVHSSNNFGAILSSTNVGSNTY; Islet amyloid polypeptide; UniProt P10997 34-70, looked up)”, the “effect on food intake” value in series [2] was “significantly decreased food intake”.
One may read the IC50 as the midpoint of a concentration-inhibition curve. As for “Salmon calcitonin (from UniProt P01263) (ligand)”, the Soleus Muscle (EC50, nM) in series [3] is 0.4 nM. Further, the half-maximal inhibitory concentration (IC50) in series [4] came out at 0.07 nM.
For the compound “Eel calcitonin: calcitonin from fish (eel), ultimobranchial calcitonin (CSNLSTCVLGKLSQELHKLQTYPRTDVGAGTP; ends and bridges not checked; cysteine pairing not given here)”, the EC50 in series [1] was 0.4 nM.
Compound “Human amylin (from UniProt P10997) (ligand)” had a Soleus Muscle (EC50, nM) in series [3] of 1.6 nM. This compound also returned an IC50 in series [4] of 0.05 nM.
The corresponding values for “Eel calcitonin (from UniProt P01262) (ligand)” are 0.4 nM and 0.09 nM.
The corresponding values for “Chicken calcitonin (from UniProt P07660) (ligand)” are 0.7 nM and 0.03 nM.
“1.7-Asn-eel Calcitonin (from UniProt P01262) (peptide)” came in with a Soleus Muscle (EC50, nM) in series [3] of 0.3 nM. For the same compound, in series [4], the IC50 was determined as 0.05 nM.
Take `CSCC[C@H](NC(=O)[C@H](Cc1ccc(OS(=O)(=O)O)cc1)NC(=O)[C@@H](N)CC(=O)O)C(=O)NCC(=O)N[C@@H](Cc1c[nH]c2ccccc12)C(=O)N[C@@H](CCSC)C(=O)N[C@@H](CC(=O)O)C(=O)N[C@@H](Cc1ccccc1)C(N)=O` [CCK-8, Asp-Tyr(SO3 H)-Met-Gly-Trp-Met-Asp-Phe-NH2]: the “effect on food intake” value in series [5] (IP injection of 1.0 μg/kg, peptide alone) is reported as “no measurable effect”. The compound also yielded a suppressed food intake in series [5] (mice, intraperitoneal, 1.0 μg/kg of each peptide, at 30 minutes) of 10.6±16.9%.
As to `CC[C@H](C)[C@H](NC(=O)[C@@H]1CCCN1C(=O)CNC(=O)[C@H](Cc1ccccc1)NC(=O)[C@H](CC(N)=O)NC(=O)[C@H](CC(N)=O)NC(=O)[C@H](CO)NC(=O)[C@H](CO)NC(=O)[C@H](Cc1c[nH]cn1)NC(=O)[C@@H](NC(=O)[C@H](CC(C)C)NC(=O)[C@H](Cc1ccccc1)NC(=O)[C@H](CC(N)=O)NC(=O)[C@H](C)NC(=O)[C@H](CC(C)C)NC(=O)[C@H](CCCNC(=N)N)NC(=O)[C@H](CCC(N)=O)NC(=O)[C@@H](NC(=O)[C@H](C)NC(=O)[C@@H]1CSSC[C@H](NC(=O)[C@@H](N)CCCCN)C(=O)N[C@@H](CC(N)=O)C(=O)N[C@@H]([C@@H](C)O)C(=O)N[C@@H](C)C(=O)N[C@@H]([C@@H](C)O)C(=O)N1)[C@@H](C)O)C(C)C)C(=O)N[C@@H](CC(C)C)C(=O)N1CCC[C@H]1C(=O)N1CCC[C@H]1C(=O)N[C@H](C(=O)N[C@@H](CC(N)=O)C(=O)N[C@H](C(=O)NCC(=O)N[C@@H](CO)C(=O)N[C@@H](CC(N)=O)C(=O)N[C@H](C(=O)N[C@@H](Cc1ccc(O)cc1)C(N)=O)[C@@H](C)O)C(C)C)[C@@H](C)O` [^25,28,29 Pro-h-amylin], in series [6], the solubility characteristics entry is listed as “more desirable” and the stability characteristics entry was “more desirable”.

The values are drawn from US5739106A, “Appetite regulating compositions” (priority 1995, dated 1998).
